Columns and labels:
[1] = molecular target: hPDE5 mutants (Homo sapiens, UniProt O76074); test: GFP FACS analysis of hPDE5 mutant library clones in NIH3T3 cell pools; conditions: for Stabilization ratio: GFP intensity 10 μM vardenafil vs DMSO; for Stabilization ratio / Destabilizing mutation co-efficient / MFI 10 μM VDF / MFI DMSO / GFP FACS analysis (MFI): experiment 1; for Destabilizing mutation co-efficient: GFP intensity mutant vs PDE5 wildtype construct in absence of ligand; for MFI 10 μM VDF / MFI DMSO: GFP, NIH3T3 cell pools; for MFI 10 μM VDF: 10 μM vardenafil 24 hr; for MFI DMSO: no ligand (DMSO)
Method: (§1) These constructs were packaged into lentivirus, transduced into NIH3T3 cells and select stable cell pools were derived as described below. […] Lentiviral stocks were used for transduction of NIH3T3 cells and subsequent cell pool selection. The day before transduction, NIH3T3 cells (1.8×10^6) were seeded in a T-25 flask and allowed to reach 60-70% confluency (˜1 day). The growth medium in the T-25 flask was then replaced with 1 mL virus (quickly thawed in a 37° C. water bath) and 5 μg/mL polybrene. […] Transduction medium was removed the following day and replaced with 5 mL fresh medium. At 48 hr after transduction, the medium was replaced with media containing 1 μg/mL puromycin. This puromycin medium was replaced every 3-4 days until cell pools were established (˜2 weeks).
(§2) The mean fluorescence intensity (MFI) of GFP at 100 μM concentration treatment was set as 100% hPDE5 stabilization effect (HPE), while DMSO treatment was set as 0% effect (ZPE) of hPDE5 stabilization. The effect of the compound on hPDE5 stabilization was calculated based on the following formula: % PDE5 stabilization effect=(MFI-ZPE)/(HPE-ZPE)×100.
(§3) Plots of the % effect versus concentration were generated with Graphpad Prism 5 and EC50 values were calculated using a four-parameter nonlinear regression model.
(§4) Select PDE5 clones from both experiment 1 and experiment 2 were directly compared. […] The stabilization ratio was calculated as the fold change in GFP intensity in ligand treated samples compared to treatment with DMSO (i.e. in the absence of ligand) with the same construct.

[2] = tested on: hPDE5 mutants; test: as above; conditions: experiment 1
Method: as §1, §2, §3, §4

## LibC000002: hPDE5 (Amino acid 535-860 of WT, I700F, E796G), DD generated by random mutagenesis
[1]
  Stabilization ratio: 3.2
  Destabilizing mutation co-efficient: 0.05
  MFI 10 μM VDF: 981
  MFI DMSO: 309

## LibC000003: hPDE5 (Amino acid 535-860 of WT, D724G, K848N), DD generated by random mutagenesis
[1]
  Stabilization ratio: 2.9
  Destabilizing mutation co-efficient: 0.11
  MFI 10 μM VDF: 1870
  MFI DMSO: 656

## LibC000005: hPDE5 (Amino acid 535-860 of WT, I556S, E796D), DD generated by random mutagenesis
[1]
  MFI 10 μM VDF: 2081
  MFI DMSO: 271
[1]; SDF 3.704 μM
  GFP FACS analysis (MFI): 518
[1]; SDF 11.111 μM
  GFP FACS analysis (MFI): 577
[1]; SDF 33.333 μM
  GFP FACS analysis (MFI): 734
[1]; SDF 100 μM
  GFP FACS analysis (MFI): 1136
[1]; TDF 3.704 μM
  GFP FACS analysis (MFI): 453
[1]; TDF 11.111 μM
  GFP FACS analysis (MFI): 551
[1]; TDF 33.333 μM
  GFP FACS analysis (MFI): 711
[1]; TDF 100 μM
  GFP FACS analysis (MFI): 814
[1]; VDF 1.235 μM
  GFP FACS analysis (MFI): 1044
[1]; VDF 3.704 μM
  GFP FACS analysis (MFI): 1968
[1]; VDF 11.111 μM
  GFP FACS analysis (MFI): 3066
[1]; VDF 33.333 μM
  GFP FACS analysis (MFI): 3892
[1]; VDF 100 μM
  GFP FACS analysis (MFI): 4240
[1]; median GFP fluorescence by FACS, 10 μM Sildenafil, direct comparison of clones
  Fluorescence intensity Sildenafil: 1136
[1]; median GFP fluorescence by FACS, 10 μM Tadalafil, direct comparison of clones
  Fluorescence intensity Tadalafil: 814
[1]; median GFP fluorescence by FACS, 10 μM Vardenafil, direct comparison of clones
  Fluorescence intensity Vardenafil: 4240
[1]; median GFP fluorescence by FACS, vehicle DMSO (no ligand), direct comparison of clones
  Fluorescence intensity DMSO: 359
[2]; DMSO (no ligand), SDF series
  GFP FACS analysis (MFI): 335
[2]; DMSO (no ligand), TDF series
  GFP FACS analysis (MFI): 366
[2]; DMSO (no ligand), VDF series
  GFP FACS analysis (MFI): 376
[2]; SDF 1.235 μM
  GFP FACS analysis (MFI): 479
  Percent stabilization effect: 18.0%
[2]; SDF 3.704 μM
  Percent stabilization effect: 22.8%
[2]; SDF 11.111 μM
  Percent stabilization effect: 30.2%
[2]; SDF 33.333 μM
  Percent stabilization effect: 49.8%
[2]; SDF 100 μM (set as 100%)
  Percent stabilization effect: 100.0%
[2]; TDF 1.235 μM
  GFP FACS analysis (MFI): 418
  Percent stabilization effect: 11.6%
[2]; TDF 3.704 μM
  Percent stabilization effect: 19.4%
[2]; TDF 11.111 μM
  Percent stabilization effect: 41.3%
[2]; TDF 33.333 μM
  Percent stabilization effect: 77.0%
[2]; TDF 100 μM (set as 100%)
  Percent stabilization effect: 100.0%
[2]; VDF 1.235 μM
  Percent stabilization effect: 17.3%
[2]; VDF 3.704 μM
  Percent stabilization effect: 41.2%
[2]; VDF 11.111 μM
  Percent stabilization effect: 69.6%
[2]; VDF 33.333 μM
  Percent stabilization effect: 91.0%
[2]; VDF 100 μM (set as 100%)
  Percent stabilization effect: 100.0%

## LibC000007: hPDE5 (Amino acid 535-860 of WT, H613L, D724Y, F755Y), DD generated by random mutagenesis
[1]
  Stabilization ratio: 1.0
  Destabilizing mutation co-efficient: 0.04
  MFI 10 μM VDF: 234
  MFI DMSO: 234

## LibC000010: hPDE5 (Amino acid 535-860 of WT, R658H), DD generated by random mutagenesis
[1]
  Stabilization ratio: 2.1
  Destabilizing mutation co-efficient: 1.17
  MFI 10 μM VDF: 13940
  MFI DMSO: 6713

## LibC000011: hPDE5 (Amino acid 535-860 of WT, S562G, L727P, R847T), DD generated by random mutagenesis
[1]
  Stabilization ratio: 1.2
  Destabilizing mutation co-efficient: 0.01
  MFI 10 μM VDF: 67
  MFI DMSO: 57

## LibC000013: hPDE5 (Amino acid 535-860 of WT, L781P), DD generated by random mutagenesis
[1]
  Stabilization ratio: 1.5
  Destabilizing mutation co-efficient: 0.09
  MFI 10 μM VDF: 723
  MFI DMSO: 498
[1]; SDF 3.704 μM
  GFP FACS analysis (MFI): 3467
[1]; SDF 11.111 μM
  GFP FACS analysis (MFI): 5539
[1]; SDF 33.333 μM
  GFP FACS analysis (MFI): 7404
[1]; SDF 100 μM
  GFP FACS analysis (MFI): 8260
[1]; TDF 3.704 μM
  GFP FACS analysis (MFI): 6275
[1]; TDF 11.111 μM
  GFP FACS analysis (MFI): 8085
[1]; TDF 33.333 μM
  GFP FACS analysis (MFI): 8353
[1]; TDF 100 μM
  GFP FACS analysis (MFI): 7614
[1]; VDF 1.235 μM
  GFP FACS analysis (MFI): 6773
[1]; VDF 3.704 μM
  GFP FACS analysis (MFI): 7330
[1]; VDF 11.111 μM
  GFP FACS analysis (MFI): 7393
[1]; VDF 33.333 μM
  GFP FACS analysis (MFI): 7308
[1]; VDF 100 μM
  GFP FACS analysis (MFI): 7207
[2]; DMSO (no ligand), SDF series
  GFP FACS analysis (MFI): 943
[2]; DMSO (no ligand), TDF series
  GFP FACS analysis (MFI): 847
[2]; DMSO (no ligand), VDF series
  GFP FACS analysis (MFI): 854
[2]; SDF 1.235 μM
  GFP FACS analysis (MFI): 2076
[2]; TDF 1.235 μM
  GFP FACS analysis (MFI): 3688

## LibC000014: hPDE5 (Amino acid 535-860 of WT, A767E), DD generated by random mutagenesis
[1]
  Stabilization ratio: 2.8
  Destabilizing mutation co-efficient: 0.44
  MFI 10 μM VDF: 6998
  MFI DMSO: 2500
